The target of this test is T1, Recombinant human CCK4/PTK7 Protein (His Tag), Sino Biological 19399-H08H (human, UniProt Q13308 31-704).
T1 construct: bought protein; not shown: His tag
T1 sequence: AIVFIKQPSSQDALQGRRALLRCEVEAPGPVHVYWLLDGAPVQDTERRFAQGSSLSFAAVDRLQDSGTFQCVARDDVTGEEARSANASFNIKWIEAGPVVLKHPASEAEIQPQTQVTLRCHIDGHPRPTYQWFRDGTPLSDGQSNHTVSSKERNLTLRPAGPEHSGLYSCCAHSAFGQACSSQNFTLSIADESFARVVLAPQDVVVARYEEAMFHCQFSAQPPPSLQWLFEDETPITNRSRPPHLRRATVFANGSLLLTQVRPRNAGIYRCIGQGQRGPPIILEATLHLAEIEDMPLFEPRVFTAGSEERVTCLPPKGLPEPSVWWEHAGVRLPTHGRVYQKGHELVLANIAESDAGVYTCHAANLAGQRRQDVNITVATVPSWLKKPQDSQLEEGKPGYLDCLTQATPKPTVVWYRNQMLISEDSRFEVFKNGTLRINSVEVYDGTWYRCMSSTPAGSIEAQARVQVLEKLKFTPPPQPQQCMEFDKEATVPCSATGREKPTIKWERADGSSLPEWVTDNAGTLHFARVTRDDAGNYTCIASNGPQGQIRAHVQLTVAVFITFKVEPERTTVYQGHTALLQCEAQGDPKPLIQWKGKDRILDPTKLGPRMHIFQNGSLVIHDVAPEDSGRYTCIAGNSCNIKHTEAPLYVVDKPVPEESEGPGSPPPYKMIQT
Nature of the test: BLI, antibody on anti-human Fc sensor. A general note: BLI is a label-free optical method that tracks binding on a fibre tip over time.

The values that follow come from US20260209386A1 (MYTHIC THERAPEUTICS, published 2026).

B1: MYT7858 (antibody, V domains shown)
VH: QVQLVQSGPEVKKPGASVKVSCKASGYTFTDYAVHWVRQAPGKRLEWIGVISTYNDYTYNNQDFKGRVTMTRDTSASTAYMELSRLRSEDTAVYYCARGNSYFYALDYWGQGTSVTVSS
VL: EIVLTQSPATLSLSPGERATLSCRAHESVDSYGKSFMAWYQQKPGQAPRLLIYRASNLESGIPARFSGSGSGTDFTLTISSLEPEDFAVYYCQQSNEDPWTFGGGTKLEIK
notes: IgG
For B1, the binding result is given as “no binding (tested: 50 nM PTK7)”.

B2: MYT7862 (antibody, V domains shown)
VH: QVQLVQSGPEVKKPGASVKVSCKASGYTFTDYAVHWVRQAPGKRLEWIGVISTYNDYTYNNQDFKGRVTMTRDTSASTAYMELSRLRSEDTAVYYCARGNSYFYALDYWGQGTSVTVSS
VL: EIVLTQSPATLSLSPGERATLSCRASESVDHYGKSFMHWYQQKPGQAPRLLIYRASNLEHGIPARFSGSGSGTDFTLTISSLEPEDFAVYYCQQSNEDPWTFGGGTKLEIK
notes: IgG
As for B2, the binding result is “no binding (tested: 50 nM PTK7)”.

B3: MYT7963 (antibody, V domains shown)
VH: EVQLVQSGGGLVHPGGSLRLSCAGSGFTHSTYLMYWVRQAPGKTLEWVSAIGSGGDTYYADSVKGRFTISRDNAKNSLYLQMNSLRAEDMAVYYCARGLGYWGQGTLVTVSS
VL: not shown
notes: IgG
Take B3: the binding result is “no binding (tested: 50 nM PTK7)”.

B4: MYT8003 (antibody, V domains shown)
VH: EVQLVQSGGGLVHPGGSLRLSCAGSGFTFSTYLMYWVRQAPGKTLEWVSAIGSGGDTYYADSVKGRFTISRDNAKNSLYLQMNSLRAEDMAVYYCARGLGYWGQGTLVTVSS
VL: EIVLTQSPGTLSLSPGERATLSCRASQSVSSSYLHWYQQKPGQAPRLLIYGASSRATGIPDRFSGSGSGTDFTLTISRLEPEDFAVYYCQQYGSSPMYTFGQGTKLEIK
notes: IgG
As for B4, the binding result was “no binding (tested: 50 nM PTK7)”.

B5: MYT7970 (antibody, V domains shown)
VH: EVQLVQSGGGLVHPGGSLRLSCAGSGFTFSTYLMYWVRQAPGKTLEWVSHIGSGGDTYYADSVKGRFTISRDNAKNSLYLQMNSLRAEDMAVYYCARGLGYWGQGTLVTVSS
VL: not shown
notes: IgG
In the case of B5, the binding result is recorded as “no binding (tested: 50 nM PTK7)”.

B6: MYT7973 (antibody, V domains shown)
VH: EVQLVQSGGGLVHPGGSLRLSCAGSGFTFSTYLMYWVRQAPGKTLEWVSAIGHGGDTYYADSVKGRFTISRDNAKNSLYLQMNSLRAEDMAVYYCARGLGYWGQGTLVTVSS
VL: not shown
notes: IgG
For B6, the binding result is “no binding (tested: 50 nM PTK7)”.

B7: MYT7986 (antibody, V domains shown)
VH: EVQLVQSGGGLVHPGGSLRLSCAGSGFTFSTYLMYWVRQAPGKTLEWVSAIGSGGDTYYADSVKGRFTISRDNAKNSLYLQMNSLRAEDMAVYYCHRGLGYWGQGTLVTVSS
VL: not shown
notes: IgG
As to B7, the binding result was “no binding (tested: 50 nM PTK7)”.

B8: MYT7972 (antibody, V domains shown)
VH: EVQLVQSGGGLVHPGGSLRLSCAGSGFTFSTYLMYWVRQAPGKTLEWVSAIHSGGDTYYADSVKGRFTISRDNAKNSLYLQMNSLRAEDMAVYYCARGLGYWGQGTLVTVSS
VL: not shown
notes: IgG
On to B8, for which the binding result was “no binding (tested: 50 nM PTK7)”.

B9: MYT7987 (antibody, V domains shown)
VH: EVQLVQSGGGLVHPGGSLRLSCAGSGFTFSTYLMYWVRQAPGKTLEWVSAIGSGGDTYYADSVKGRFTISRDNAKNSLYLQMNSLRAEDMAVYYCAHGLGYWGQGTLVTVSS
VL: not shown
notes: IgG
Regarding B9, the binding result was “no binding (tested: 50 nM PTK7)”.

B10: MYT7988 (antibody, V domains shown)
VH: EVQLVQSGGGLVHPGGSLRLSCAGSGFTFSTYLMYWVRQAPGKTLEWVSAIGSGGDTYYADSVKGRFTISRDNAKNSLYLQMNSLRAEDMAVYYCARHLGYWGQGTLVTVSS
VL: not shown
notes: IgG
For B10, the binding result is on record as “no binding (tested: 50 nM PTK7)”.

B11: MYT7989 (antibody, V domains shown)
VH: EVQLVQSGGGLVHPGGSLRLSCAGSGFTFSTYLMYWVRQAPGKTLEWVSAIGSGGDTYYADSVKGRFTISRDNAKNSLYLQMNSLRAEDMAVYYCARGHGYWGQGTLVTVSS
VL: not shown
notes: IgG
Regarding B11, the binding result is “no binding (tested: 50 nM PTK7)”.
